Experimental data reported in patent US20140087995A1 (published 2014).
Numbered stars: 1 amine (or outer) side, 2 acyl side, 3 side chain; on linkers, the order of the positions; unused ones are H or OH. Bridge positions count the residues as written; N and C are the ends. Side chains are listed from the residue outwards. Ends that are not written are not given here. * marks the point of attachment. C20 diacid = O=C(O)CCCCCCCCCCCCCCCCCCC(=O)*; γGlu = O=C(O)[C@H](CCC(=O)[*:2])N[*:1]; AEEA = NCCOCCOCC(=O)O

B1: [Asp14,Arg17,Pro21,Pro27,Arg35]-h-amylin (peptide)
peptide: KCNTATCATQRLADFLRHSSPNFGAIPSSTNVGSRTY-NH2
modifications: disulfide 2-7
B2: N^α1-[(4S)-4-carboxy-4-[[(4S)-4-carboxy-4-(19-carboxynonadecanoylamino)butanoyl]amino]butanoyl]-[Glu14,Arg17,Pro21,Pro27]-h-amylin (peptide)
peptide: {C20 diacid-γGlu-γGlu}-KCNTATCATQRLAEFLRHSSPNFGAIPSSTNVGSNTY-NH2
modifications: disulfide 2-7
SMILES: CC[C@H](C)[C@H](NC(=O)[C@H](C)NC(=O)CNC(=O)[C@H](Cc1ccccc1)NC(=O)[C@H](CC(N)=O)NC(=O)[C@@H]1CCCN1C(=O)[C@H](CO)NC(=O)[C@H](CO)NC(=O)[C@H](Cc1c[nH]cn1)NC(=O)[C@H](CCCNC(=N)N)NC(=O)[C@H](CC(C)C)NC(=O)[C@H](Cc1ccccc1)NC(=O)[C@H](CCC(=O)O)NC(=O)[C@H](C)NC(=O)[C@H](CC(C)C)NC(=O)[C@H](CCCNC(=N)N)NC(=O)[C@H](CCC(N)=O)NC(=O)[C@@H](NC(=O)[C@H](C)NC(=O)[C@@H]1CSSC[C@H](NC(=O)[C@H](CCCCN)NC(=O)CC[C@H](NC(=O)CC[C@H](NC(=O)CCCCCCCCCCCCCCCCCCC(=O)O)C(=O)O)C(=O)O)C(=O)N[C@@H](CC(N)=O)C(=O)N[C@@H]([C@@H](C)O)C(=O)N[C@@H](C)C(=O)N[C@@H]([C@@H](C)O)C(=O)N1)[C@@H](C)O)C(=O)N1CCC[C@H]1C(=O)N[C@@H](CO)C(=O)N[C@@H](CO)C(=O)N[C@H](C(=O)N[C@@H](CC(N)=O)C(=O)N[C@H](C(=O)NCC(=O)N[C@@H](CO)C(=O)N[C@@H](CC(N)=O)C(=O)N[C@H](C(=O)N[C@@H](Cc1ccc(O)cc1)C(N)=O)[C@@H](C)O)C(C)C)[C@@H](C)O
notes: h-amylin derivative; disulfide bridge and C-terminal amide as told for human amylin; also called compound 15
B3: N^ε1-[2-[2-[2-[[(4S)-4-carboxy-4-(19-carboxynonadecanoylamino)butanoyl]amino]ethoxy]ethoxy]acetyl]-[Arg17,Pro21,Pro27,Pro31,His35]-h-amylin (peptide)
peptide: K([AEEA-γGlu-C20 diacid])CNTATCATQRLANFLRHSSPNFGAIPSSTPVGSHTY-NH2
modifications: disulfide 2-7; N-terminus assumed
SMILES: CC[C@H](C)[C@H](NC(=O)[C@H](C)NC(=O)CNC(=O)[C@H](Cc1ccccc1)NC(=O)[C@H](CC(N)=O)NC(=O)[C@@H]1CCCN1C(=O)[C@H](CO)NC(=O)[C@H](CO)NC(=O)[C@H](Cc1c[nH]cn1)NC(=O)[C@H](CCCNC(=N)N)NC(=O)[C@H](CC(C)C)NC(=O)[C@H](Cc1ccccc1)NC(=O)[C@H](CC(N)=O)NC(=O)[C@H](C)NC(=O)[C@H](CC(C)C)NC(=O)[C@H](CCCNC(=N)N)NC(=O)[C@H](CCC(N)=O)NC(=O)[C@@H](NC(=O)[C@H](C)NC(=O)[C@@H]1CSSC[C@H](NC(=O)[C@@H](N)CCCCNC(=O)COCCOCCNC(=O)CC[C@H](NC(=O)CCCCCCCCCCCCCCCCCCC(=O)O)C(=O)O)C(=O)N[C@@H](CC(N)=O)C(=O)N[C@@H]([C@@H](C)O)C(=O)N[C@@H](C)C(=O)N[C@@H]([C@@H](C)O)C(=O)N1)[C@@H](C)O)C(=O)N1CCC[C@H]1C(=O)N[C@@H](CO)C(=O)N[C@@H](CO)C(=O)N[C@H](C(=O)N1CCC[C@H]1C(=O)N[C@H](C(=O)NCC(=O)N[C@@H](CO)C(=O)N[C@@H](Cc1c[nH]cn1)C(=O)N[C@H](C(=O)N[C@@H](Cc1ccc(O)cc1)C(N)=O)[C@@H](C)O)C(C)C)[C@@H](C)O
notes: h-amylin derivative; disulfide bridge and C-terminal amide as told for human amylin; also called compound 57
B4: N^ε1-[2-[2-[2-[[(4S)-4-carboxy-4-(19-carboxynonadecanoylamino)butanoyl]amino]ethoxy]ethoxy]acetyl]-[Arg17,Pro21,Pro27,Pro28,Pro34]-h-amylin (peptide)
peptide: K([AEEA-γGlu-C20 diacid])CNTATCATQRLANFLRHSSPNFGAIPPSTNVGPNTY-NH2
modifications: disulfide 2-7; N-terminus assumed
SMILES: CC[C@H](C)[C@H](NC(=O)[C@H](C)NC(=O)CNC(=O)[C@H](Cc1ccccc1)NC(=O)[C@H](CC(N)=O)NC(=O)[C@@H]1CCCN1C(=O)[C@H](CO)NC(=O)[C@H](CO)NC(=O)[C@H](Cc1c[nH]cn1)NC(=O)[C@H](CCCNC(=N)N)NC(=O)[C@H](CC(C)C)NC(=O)[C@H](Cc1ccccc1)NC(=O)[C@H](CC(N)=O)NC(=O)[C@H](C)NC(=O)[C@H](CC(C)C)NC(=O)[C@H](CCCNC(=N)N)NC(=O)[C@H](CCC(N)=O)NC(=O)[C@@H](NC(=O)[C@H](C)NC(=O)[C@@H]1CSSC[C@H](NC(=O)[C@@H](N)CCCCNC(=O)COCCOCCNC(=O)CC[C@H](NC(=O)CCCCCCCCCCCCCCCCCCC(=O)O)C(=O)O)C(=O)N[C@@H](CC(N)=O)C(=O)N[C@@H]([C@@H](C)O)C(=O)N[C@@H](C)C(=O)N[C@@H]([C@@H](C)O)C(=O)N1)[C@@H](C)O)C(=O)N1CCC[C@H]1C(=O)N1CCC[C@H]1C(=O)N[C@@H](CO)C(=O)N[C@H](C(=O)N[C@@H](CC(N)=O)C(=O)N[C@H](C(=O)NCC(=O)N1CCC[C@H]1C(=O)N[C@@H](CC(N)=O)C(=O)N[C@H](C(=O)N[C@@H](Cc1ccc(O)cc1)C(N)=O)[C@@H](C)O)C(C)C)[C@@H](C)O
notes: h-amylin derivative; disulfide bridge and C-terminal amide as told for human amylin; also called compound 55
B5: N^ε1-[2-[2-[2-[[(4S)-4-carboxy-4-(19-carboxynonadecanoylamino)butanoyl]amino]ethoxy]ethoxy]acetyl]-[Arg17,Pro21,Pro27,Pro29,Pro34]-h-amylin (peptide)
peptide: K([AEEA-γGlu-C20 diacid])CNTATCATQRLANFLRHSSPNFGAIPSPTNVGPNTY-NH2
modifications: disulfide 2-7; N-terminus assumed
SMILES: CC[C@H](C)[C@H](NC(=O)[C@H](C)NC(=O)CNC(=O)[C@H](Cc1ccccc1)NC(=O)[C@H](CC(N)=O)NC(=O)[C@@H]1CCCN1C(=O)[C@H](CO)NC(=O)[C@H](CO)NC(=O)[C@H](Cc1c[nH]cn1)NC(=O)[C@H](CCCNC(=N)N)NC(=O)[C@H](CC(C)C)NC(=O)[C@H](Cc1ccccc1)NC(=O)[C@H](CC(N)=O)NC(=O)[C@H](C)NC(=O)[C@H](CC(C)C)NC(=O)[C@H](CCCNC(=N)N)NC(=O)[C@H](CCC(N)=O)NC(=O)[C@@H](NC(=O)[C@H](C)NC(=O)[C@@H]1CSSC[C@H](NC(=O)[C@@H](N)CCCCNC(=O)COCCOCCNC(=O)CC[C@H](NC(=O)CCCCCCCCCCCCCCCCCCC(=O)O)C(=O)O)C(=O)N[C@@H](CC(N)=O)C(=O)N[C@@H]([C@@H](C)O)C(=O)N[C@@H](C)C(=O)N[C@@H]([C@@H](C)O)C(=O)N1)[C@@H](C)O)C(=O)N1CCC[C@H]1C(=O)N[C@@H](CO)C(=O)N1CCC[C@H]1C(=O)N[C@H](C(=O)N[C@@H](CC(N)=O)C(=O)N[C@H](C(=O)NCC(=O)N1CCC[C@H]1C(=O)N[C@@H](CC(N)=O)C(=O)N[C@H](C(=O)N[C@@H](Cc1ccc(O)cc1)C(N)=O)[C@@H](C)O)C(C)C)[C@@H](C)O
notes: h-amylin derivative; disulfide bridge and C-terminal amide as told for human amylin; also called compound 56
B6: N^ε1-[2-[2-[2-[[(4S)-4-carboxy-4-(19-carboxynonadecanoylamino)butanoyl]amino]ethoxy]ethoxy]acetyl]-[Arg17,Pro21,Pro27,Pro29,Pro31]-h-amylin (peptide)
peptide: K([AEEA-γGlu-C20 diacid])CNTATCATQRLANFLRHSSPNFGAIPSPTPVGSNTY-NH2
modifications: disulfide 2-7; N-terminus assumed
SMILES: CC[C@H](C)[C@H](NC(=O)[C@H](C)NC(=O)CNC(=O)[C@H](Cc1ccccc1)NC(=O)[C@H](CC(N)=O)NC(=O)[C@@H]1CCCN1C(=O)[C@H](CO)NC(=O)[C@H](CO)NC(=O)[C@H](Cc1c[nH]cn1)NC(=O)[C@H](CCCNC(=N)N)NC(=O)[C@H](CC(C)C)NC(=O)[C@H](Cc1ccccc1)NC(=O)[C@H](CC(N)=O)NC(=O)[C@H](C)NC(=O)[C@H](CC(C)C)NC(=O)[C@H](CCCNC(=N)N)NC(=O)[C@H](CCC(N)=O)NC(=O)[C@@H](NC(=O)[C@H](C)NC(=O)[C@@H]1CSSC[C@H](NC(=O)[C@@H](N)CCCCNC(=O)COCCOCCNC(=O)CC[C@H](NC(=O)CCCCCCCCCCCCCCCCCCC(=O)O)C(=O)O)C(=O)N[C@@H](CC(N)=O)C(=O)N[C@@H]([C@@H](C)O)C(=O)N[C@@H](C)C(=O)N[C@@H]([C@@H](C)O)C(=O)N1)[C@@H](C)O)C(=O)N1CCC[C@H]1C(=O)N[C@@H](CO)C(=O)N1CCC[C@H]1C(=O)N[C@H](C(=O)N1CCC[C@H]1C(=O)N[C@H](C(=O)NCC(=O)N[C@@H](CO)C(=O)N[C@@H](CC(N)=O)C(=O)N[C@H](C(=O)N[C@@H](Cc1ccc(O)cc1)C(N)=O)[C@@H](C)O)C(C)C)[C@@H](C)O
notes: h-amylin derivative; disulfide bridge and C-terminal amide as told for human amylin; also called compound 54
B7: N^ε1-[2-[2-[2-[[(4S)-4-carboxy-4-(19-carboxynonadecanoylamino)butanoyl]amino]ethoxy]ethoxy]acetyl]-[Arg17,Pro21,Pro27,Pro28,Pro31]-h-amylin (peptide)
peptide: K([AEEA-γGlu-C20 diacid])CNTATCATQRLANFLRHSSPNFGAIPPSTPVGSNTY-NH2
modifications: disulfide 2-7
notes: h-amylin derivative; disulfide bridge and C-terminal amide as told for human amylin; also called compound 53

Each binder was assayed against T1, rat calcitonin receptor (rat, UniProt P32214 25-516) (assay: SPA competition binding, displacement of 125I-Calcitonin from membranes of BHK tk'ts 13 cells with rat calcitonin receptor (Assay VIII)).
T1 construct: whole, on cells; In cell membranes prepared from transiently transfected BHK tk'ts 13 cells (Assay VIII); also called rCTR; rat calcitonin (a) receptor
T1 sequence (looked up): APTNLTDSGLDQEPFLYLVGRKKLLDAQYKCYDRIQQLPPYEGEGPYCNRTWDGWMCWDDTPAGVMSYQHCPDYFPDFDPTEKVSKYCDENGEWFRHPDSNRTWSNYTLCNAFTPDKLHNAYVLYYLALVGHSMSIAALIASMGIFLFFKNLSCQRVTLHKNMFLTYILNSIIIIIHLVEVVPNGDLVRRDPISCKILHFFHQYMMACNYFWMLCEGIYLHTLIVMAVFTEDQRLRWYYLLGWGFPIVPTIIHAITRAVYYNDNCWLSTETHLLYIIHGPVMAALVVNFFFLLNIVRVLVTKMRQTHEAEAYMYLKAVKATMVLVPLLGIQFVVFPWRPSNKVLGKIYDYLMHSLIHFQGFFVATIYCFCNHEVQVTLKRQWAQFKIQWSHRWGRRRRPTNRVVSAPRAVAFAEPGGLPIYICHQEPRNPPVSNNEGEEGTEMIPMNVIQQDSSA
B1 showed an IC50 of 30.9 nM.

The binders below were run against T2, human calcitonin receptor (human, UniProt P30988 25-474) (assay: cell-based or functional assay).
T2 sequence (looked up): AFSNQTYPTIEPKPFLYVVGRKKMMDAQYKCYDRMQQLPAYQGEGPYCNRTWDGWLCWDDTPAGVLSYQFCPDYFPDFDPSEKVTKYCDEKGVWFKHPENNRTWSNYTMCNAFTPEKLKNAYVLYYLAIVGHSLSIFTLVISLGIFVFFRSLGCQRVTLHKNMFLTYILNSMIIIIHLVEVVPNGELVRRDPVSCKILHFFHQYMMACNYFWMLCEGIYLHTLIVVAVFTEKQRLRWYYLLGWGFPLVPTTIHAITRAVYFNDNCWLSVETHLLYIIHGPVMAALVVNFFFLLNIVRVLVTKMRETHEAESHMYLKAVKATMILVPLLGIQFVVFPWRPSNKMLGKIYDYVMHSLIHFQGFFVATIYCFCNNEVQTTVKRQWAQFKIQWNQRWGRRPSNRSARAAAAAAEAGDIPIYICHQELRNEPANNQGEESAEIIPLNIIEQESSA
In the case of B2, the “hCTR funct. EC50” value is reported as 3.43 nM.
In the case of B3, the “hCTR funct. EC50” value is reported as 3.12 nM.
In the case of B4, the “hCTR funct. EC50” value is reported as 0.731 nM.
For B5, the “hCTR funct. EC50” value was 0.506 nM.
B6 was tested, and the “hCTR funct. EC50” value was 0.987 nM.
With B7 the “hCTR funct. EC50” value was 0.625 nM.

Each binder was assayed against T3, human amylin 3(a) receptor (human calcitonin receptor co-expressed with RAMP-3) (human, UniProt P30988 25-474; O60896 24-148, limits assumed) (assay: cell-based or functional assay).
T3 sequence (looked up) 1: T2 sequence (looked up)
T3 sequence (looked up) 2: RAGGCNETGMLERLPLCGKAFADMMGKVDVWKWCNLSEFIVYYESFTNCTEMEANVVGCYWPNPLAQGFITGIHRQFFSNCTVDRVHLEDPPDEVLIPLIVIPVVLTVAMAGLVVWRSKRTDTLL
In the case of B2, the “Ratio hCT/hAmylin funct.” value is reported as 8.9.
In the case of B3, the “hAmylin-R funct. EC50” value is reported as 0.089 nM.
For B4, the “hAmylin-R funct. EC50” value was 0.068 nM.
In the case of B5, the “Ratio hCT/hAmylin funct.” value is reported as 5 and the “hAmylin-R funct. EC50” value is reported as 0.102 nM.
For B6, the “Ratio hCT/hAmylin funct.” value was 9.6.
With B7 the “Ratio hCT/hAmylin funct.” value was 9.8.
